Biological target: AP-1 clathrin adaptor complex (UniProt O43747)
Assay: GST pull-down, Western blot with anti-γ-adaptin, densitometry
Conditions: HeLa cell lysates; GST-fusions immobilized on GSH-sepharose beads; parent: est. 100; read off a plot

Chain of UniProt O43747 (O43747 whole entry, looked up, one chain of several): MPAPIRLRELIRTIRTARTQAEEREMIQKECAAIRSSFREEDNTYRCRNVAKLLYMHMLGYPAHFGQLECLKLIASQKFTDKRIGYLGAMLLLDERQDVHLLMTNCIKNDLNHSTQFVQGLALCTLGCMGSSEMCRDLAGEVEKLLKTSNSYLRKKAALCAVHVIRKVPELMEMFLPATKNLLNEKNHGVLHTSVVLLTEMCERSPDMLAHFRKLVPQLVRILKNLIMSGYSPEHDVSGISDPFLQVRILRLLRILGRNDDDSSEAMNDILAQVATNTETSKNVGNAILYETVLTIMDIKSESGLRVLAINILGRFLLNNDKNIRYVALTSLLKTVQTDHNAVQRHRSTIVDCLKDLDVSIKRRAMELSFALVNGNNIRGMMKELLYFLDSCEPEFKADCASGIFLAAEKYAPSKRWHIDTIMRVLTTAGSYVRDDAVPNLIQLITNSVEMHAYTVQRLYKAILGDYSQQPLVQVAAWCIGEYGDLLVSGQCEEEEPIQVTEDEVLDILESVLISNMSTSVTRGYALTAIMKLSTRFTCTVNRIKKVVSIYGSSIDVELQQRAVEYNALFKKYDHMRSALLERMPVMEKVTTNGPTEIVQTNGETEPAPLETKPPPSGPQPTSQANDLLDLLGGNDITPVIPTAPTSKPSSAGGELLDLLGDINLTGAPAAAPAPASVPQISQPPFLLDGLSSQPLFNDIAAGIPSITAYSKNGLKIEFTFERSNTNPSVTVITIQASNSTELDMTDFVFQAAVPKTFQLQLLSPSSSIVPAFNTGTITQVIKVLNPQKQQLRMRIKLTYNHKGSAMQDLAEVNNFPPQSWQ

| Substance | percent of parent |
| --- | --- |
| GST-Nef, wild-type HIV-1 NL4.3 Nef fused to glutathione-S-transferase L164A; L165A | 17 % of control |
| GST-Nef, wild-type HIV-1 NL4.3 Nef fused to glutathione-S-transferase P129A; G130A | 74 % of control |
| GST-Nef, wild-type HIV-1 NL4.3 Nef fused to glutathione-S-transferase P131A; G132A | 75 % of control |

Source: article PMC4689412
